The target of this assay is T1, H6-CtBP2 (UniProt P56545 1-445).
T1 construct: also called H6-tagged wt CtBP2; wt CtBP2; source: purified
Put plainly: pull-down; GST fusion proteins charged on glutathione-agarose beads, incubated with purified H6-CtBP2 or H6-RR-CtBP2 (~0.1 μg) in 200 μl of 25 mM Tris-HCl pH 7.5, 0.25 M NaCl, 0.5% Triton X-100, 0.5 mM DTT for 1 h at 4°C; Western blot with the CtBP2 antibody. Particulars: both partners purified. A general note: In western blotting, separated proteins are transferred to a membrane and probed.

B1: GST-ZEB101 (domain or fragment, UniProt P37275-1 680-780, looked up)
chain: PLKMTNSPVLPVGSTTNGSRSSTPSPSPLNLSSSRNTQGYLYTAEGAQEEPQVEPLDLSLPKQQGELLERSTITSVYQNSVYSVQEEPLNLSCAKKEPQKD
notes: ZEB (ZEB1), GenBank NM_030751, aa 680-780; transferred from pGFP-ZEB101 to a pGST vector at XhoI/EcoRI; also called wt ZEB101; source: induced with 1 mM IPTG; lysate loaded onto glutathione-agarose beads
Consider B1, for which the binding result is on record as “binds”.
